One substance from PMC3861672 can be followed below.

In this assay the target is Fps1 (UniProt P23900). Nature of the assay: BiFC, split CFP. To be noted: reference: no sorbitol.

For “Hog1 (from UniProt P32485) 1 M sorbitol, 5 min”, the “other: percent of cells with detectable fluorescence” value is recorded as “stronger; reference 27.6”.
